Reference: US20090181444A1, “MODIFIED CARBOHYDRATE PROCESSING ENZYME” (priority 2002, published 2009)

Assay: Kinetic assay with o-nitrophenyl β-D-galactopyranoside-6-phosphate, absorbance at 405 nm
Format: biochemical
Details: oNPGalP6, 45° C., pH 6.5 phosphate buffer; averaged over 3 runs, except * 2 runs
Procedure: The kinetic activity of SsδG was assessed using ultra-violet/visible spectroscopy. Cleavage of the glycosidic bond of the nitrophenyl sugar analogue releases a chromophore (Scheme 18), either p-nitrophenol or o-nitrophenol.
The absorbance of these chromophores at 405 nm was continuously measured at regular time intervals, and the Beer-Lambert Law used to calculate the chromophore concentration at each of these time intervals.
In order to use this equation the extinction coefficient, ∈, of both p-nitrophenol and o-nitrophenol were calculated. Enzyme kinetic parameters were assessed using the initial rates method. The gradient of a plot of chromophore concentration against time gave the initial rate of reaction at a series of substrate concentrations (0.05-10 mM). Kinetic parameters were calculated by regression analysis of the kinetic data on the Michaelis-Menten Model (Fersht, A., Enzyme Structure and Mechanism, W.H. Freeman and Company, New York (1985)). The initial rate of reaction was measured. This model is valid when [substrate]>>[enzyme], which are initial rate conditions.
KM and νmax were calculated from non-linear Michaelis-Menten and linear Lineweaver-Burk plots. From these values, kcat and kcat/KM were calculated and compared.
KM=νmax/2, it is the concentration of substrate at which half the active sites are filled. Higher KM values correspond to weaker binding and lower KM values correspond to stronger binding kcat, the turnover number is the number of substrate molecules which are converted to product when the enzyme is saturated with substrate and ν (rate) is maximised. […] To allow comparison of the activity of the enzymes, ln({kcat/KM}mutant/{kcat/KM}WT) was calculated for each enzyme-substrate combination, to give overall activity relative to WT.
Substrate solutions (concentration 10 mM in 50 mM pH 6.5 phosphate buffer) were prepared. […] The enzyme stock solution (˜1 mgmL^−1) was diluted between 16- and 80-fold depending on the kinetic parameters determined*. […] Simultaneously a 96-well flat bottom microtitre plate was incubated at 45° C. in a plate reader. […] The plate containing the enzyme and substrate solutions was then incubated in the plate reader at 45° C. to allow equilibration. […] Release of p-nitrophenol/o-nitropbenol was measured by absorbance at […], with an automix of 3 s before the first read and Is between every subsequent read. The run time chosen was between 6 min and 10 min*, and readings were taken at intervals of between 6 s and 10 s*.
A graph of concentration of the released chromophore (either pNP or oNP) against time was drawn for each concentration using Microsoft Excel. […] These gradients were entered into Grafit, which calculated KM and νmax from the Michelis-Menten and Lineweaver-Burk plots. From these kcat and kcat/KM could be calculated. […]

B1: WT: Wild type β-glycosidase from Sulfolobus solfataricus (SEQ ID NO: 2), recombinant with N-terminal His6-tag (protein, listed as Sulfolobus solfataricus)
chain: MYSFPNSFRFGWSQAGFQSEMGTPGSEDPNTDWYKWVHDPENMAAGLVSGDLPENGPGYWGNYKTFHDNAQKMGLKIARLNVEWSRIFPNPLPRPQNFDESKQDVTEVEINENELKRLDEYANKDALNHYREIFKDLKSRGLYFILNMYHWPLPLWLHDPIRVRRGDFTGPSGWLSTRTVYEFARFSAYIAWKFDDLVDEYSTMNEPNVVGGLGYVGVKSGFPPGYLSFELSRRHMYNIIQAHARAYDGIKSVSKKPVGIIYANSSFQPLTDKDMEAVEMAENDNRWWFFDAIIRGEITRGNEKIVRDDLKGRLDWIGVNYYTRTVVKRTEKGYVSLGGYGHGCERNSVSLAGLPTSDFGWEFFPEGLYDVLTKYWNRYHLYMYVTENGIADDADYQRPYYLVSHVYQVHRAINSGADVRGYLHWSLADNYEWASGFSMRFGLLKVDYNTKRLYWRPSALVYREIATNGAITDEIEHLNSVPPVKPLRH
modifications: N-terminal His6 tag
B1 gave a Km of 2090 µM and a kcat of 5.52 s⁻¹.
